We go through two molecules from publication doi:10.1101/2024.11.27.625625 (bioRxiv, 2024).

B2: TolQ (natural protein, E. coli)
chain: MTDMNILDLFLKASLLVKLIMLILIGFSIASWAIIIQRTRILNAAAREAEAFEDKFWSGIELSRLYQESQGKRDNLTGSEQIFYSGFKEFVRLHRANSHAPEAVVEGASRAMRISMNRELENLETHIPFLGTVGSISPYIGLFGTVWGIMHAFIALGAVKQATLQMVAPGIAEALIATAIGLFAAIPAVMAYNRLNQRVNKLELNYDNFMEEFTAILHRQAFTVSESNKG

Data set [1] has as its target B2. Briefly: co-purification.
The target in data set [2] is T1, TolR with an octahistidine-tag at the C-terminus (E. coli, UniProt P0ABV6 1-142).
T1 sequence: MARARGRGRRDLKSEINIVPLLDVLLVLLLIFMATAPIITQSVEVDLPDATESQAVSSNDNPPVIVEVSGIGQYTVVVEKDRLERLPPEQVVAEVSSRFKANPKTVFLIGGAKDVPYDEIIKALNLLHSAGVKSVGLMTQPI
Briefly: co-purification.

Data set [3] deals with the molecule itself. Description: cryo-EM structure.

The term stoichiometry N denotes the number of molecules, sites or subunits per partner or assembly.

B1: TolA (natural protein, E. coli, UniProt P19934 1-421, looked up)
chain: MSKATEQNDKLKRAIIISAVLHVILFAALIWSSFDENIEASAGGGGGSSIDAVMVDSGAVVEQYKRMQSQESSAKRSDEQRKMKEQQAAEELREKQAAEQERLKQLEKERLAAQEQKKQAEEAAKQAELKQKQAEEAAAKAAADAKAKAEADAKAAEEAAKKAAADAKKKAEAEAAKAAAEAQKKAEAAAAALKKKAEAAEAAAAEARKKAATEAAEKAKAEAEKKAAAEKAAADKKAAAEKAAADKKAAEKAAAEKAAADKKAAAEKAAADKKAAAAKAAAEKAAAAKAAAEADDIFGELSSGKNAPKTGGGAKGNNASPAGSGNTKNNGASGADINNYAGQIKSAIESKFYDASSYAGKTCTLRIKLAPDGMLLDIKPEGGDPALCQAALAAAKLAKIPKPPSQAVYEVFKNAPLDFKP
For B1, the “stoichiometry N” value in data set [1] was roughly 4.5 TolQ per TolA; in data set [2], roughly 1.5 TolR per TolA.

Take B2: the “stoichiometry N” value in data set [3] stood at 5.
